The RNAGym collection of RNA variant scans (doi:10.1021/acssynbio.7b00057)

B1: Pistol ribozyme (parent)
chain: GGGUCGUUGUUCCAUAAUCGCGUGGAUAUGGCACGCAAGUUUCUACCGGGCACCGUAAAUGUCCGACUGGAGCCGUUCGGGCGGCUAUAAACAGACCUCAGGCCCGAAGCGUGGCGGCACCUGCCGCCGGUGGUAAAAAAGAUCGGAAGAGCACACGUCU

Variants of: B1
Assay: aptazyme ON/OFF ratio, guanine; higher = stronger switching; co-transcriptional cleavage with and without guanine

Variant | aptazyme ON/OFF ratio
U8G U10G U11A C12U | 1.38
U8G U10G U11A C12G | 1.28
U8G U10G U11A C12A | 1.18
U8G G9U U11G C12A C13A | 1.14
U8G G9U U11G C12A C13G | 1.19
U8G G9U U11G C12A C13U | 1.21
U8G U10G U11A | 1.26
U8G U10G U11C | 1.05
U8G U10G U11G | 1.45
G9A U10A C12A C13U | 1.36
G9A U10A C12A C13G | 1.06
G9A U10A C12A C13A | 1.61
U8G U11G C13G | 1.05
U8G U11G C13A | 1.04
U8G U11G C13U | 1.03
U8G U10C U11G C12G C13A | 1.17
U8G U10C U11G C12G C13U | 1.2
U8G U10C U11G C12G C13G | 1.18
U8G U10G U11A C13G | 1.18
U8G U10G U11A C13U | 1.33
U8G U10G U11A C13A | 1.16
U8G U10G U11C C12G C13A | 1.11
U8G U10G U11C C12G C13U | 1.13
U8G U10G U11C C12G C13G | 1.1

Variant | aptazyme ON/OFF ratio
G9A U10A C12U C13A | 1.39
G9A U10A C12U C13G | 1.24
U8G G9U U10G U11C C13U | 1.03
U8G G9U U10G U11C C13G | 1.04
U8G U10A U11G C13U | 1.04
U8G U10A U11G C13G | 1.04
U8G U10A U11G C13A | 1.08
U8G U10G U11G C12U | 1.44
U8G U10G U11G C12G | 1.07
U8G U10G U11G C12A | 1.09
U8G U10A C12G | 1.23
U8G U10A C12U | 1.17
U8G U10A C12A | 1.48
U8G U10G C12A | 1.39
U8G U10G C12G | 1.3
U8G U10G C12U | 1.15
U8G U10C U11C C12G C13G | 1.09
U8G U10C U11C C12G C13A | 1.1
U8G U10C U11C C12G C13U | 1.15
U8G U11C C12U C13G | 1.29
U8G U11C C12U C13U | 1.3
U8G U11C C12U C13A | 1.33
G9A U10A | 3.05
U8G G9U U11C C13U | 1.08

Variant | aptazyme ON/OFF ratio
U8G G9U U11C C13A | 1.1
U8G G9U U11C C13G | 1.03
G9A C12A | 1.92
G9A C12G | 1.71
G9A C12U | 1.78
U8G U10C U11C C12A | 1.09
U8G U10C U11C C12G | 1.21
U8G U10C U11C C12U | 1.17
U8G U10A U11G C12G C13U | 1.5
U8G U10A U11G C12G C13G | 1.14
U8G U10A U11G C12G C13A | 1.31
U8G U10G U11G C13A | 1.21
U8G U10G U11G C13U | 1.19
U8G U10G U11G C13G | 1.25
U8G U11G C12U C13A | 1.22
U8G U11G C12U C13U | 1.21
U8G U11G C12U C13G | 1.24
U8G U10A U11A C12A C13U | 1.13
U8G U10A U11A C12A C13G | 1.11
U8G U10A U11A C12A C13A | 1.19
U8G U10A U11C C12U | 1.03
U8G U10A U11C C12G | 1.21
U8G U10A U11C C12A | 1.18
U8G G9U U10G U11G C13U | 1.02

Variant | aptazyme ON/OFF ratio
U8G G9U U10G U11G C13G | 1.03
U8G G9U U10G U11G C13A | 1.04
U8G U10A U11G C12A | 1.12
U8G U10A U11G C12U | 1.23
U8G U10A U11G C12G | 1.2
U8G G9U U11G C12G | 1.39
U8G G9U U11G C12A | 1.32
U8G G9U U11G C12U | 1.27
U8G U10C U11G C13U | 1.05
U8G U10C U11G C13A | 1.07
U8G U10C U11G C13G | 1.07
U8G G9U U11G C13U | 1.05
U8G G9U U11G C13A | 1.06
U8G G9U U11G C13G | 1.04
U8G G9U U10G U11G C12A C13A | 1.07
U8G G9U U10G U11G C12A C13U | 1.05
U8G G9U U10G U11G C12A C13G | 1.08
U8G G9U U10G U11G C12U C13A | 1.09
U8G G9U U10G U11G C12U C13G | 1.09
U8G G9U U10G U11G C12U C13U | 1.18
U8G U10A C12U C13U | 1.3
U8G U10A C12U C13A | 1.32
U8G U10A C12U C13G | 1.32
U8G U11C C12G | 1.3

Variant | aptazyme ON/OFF ratio
U8G U11C C12U | 1.26
U8G U11C C12A | 1.13
G9A U10A C12G C13A | 1.47
G9A U10A C12G C13G | 1.33
G9A U10A C12G C13U | 1.57
U8G G9U U11C C12A | 1.12
U8G G9U U11C C12G | 1.12
U8G G9U U11C C12U | 1.04
U8G U10C C12A C13G | 1.07
U8G U10C C12A C13A | 1.09
U8G U10C C12A C13U | 1.14
U8G U10C U11C C12U C13U | 1.09
U8G U10C U11C C12U C13A | 1.14
U8G U10C U11C C12U C13G | 1.27
U8G U10C U11A C12G C13A | 1.07
U8G U10C U11A C12G C13G | 1.09
U8G U10C U11A C12G C13U | 1.27
U8G U10A U11C C12G C13U | 1.33
U8G U10A U11C C12G C13G | 1.33
U8G U10A U11C C12G C13A | 1.13
U8G U10G U11A C12G C13G | 1.17
U8G U10G U11A C12G C13U | 1.34
U8G U10G U11A C12G C13A | 1.13
U8G U10C U11A C12A C13A | 1.16

Variant | aptazyme ON/OFF ratio
U8G U10C U11A C12A C13G | 1.11
U8G U10C U11A C12A C13U | 1.24
U8G U10G U11A C12A C13A | 1.18
U8G U10G U11A C12A C13G | 1.14
U8G U10G U11A C12A C13U | 1.3
U8G G9U U10G U11G C12G C13G | 1.17
U8G G9U U10G U11G C12G C13A | 1.07
U8G G9U U10G U11G C12G C13U | 1.09
U8G U11G C12G C13A | 1.08
U8G U11G C12G C13G | 1.08
U8G U11G C12G C13U | 1.2
U8G G9U U11C C12G C13G | 1.06
U8G G9U U11C C12G C13U | 1.13
U8G G9U U11C C12G C13A | 1.04
U8G U10A U11G C12U C13A | 1.15
U8G U10A U11G C12U C13G | 1.22
U8G U10A U11G C12U C13U | 1.12
U8G U10G U11G C12A C13U | 1.18
U8G U10G U11G C12A C13A | 1.08
U8G U10G U11G C12A C13G | 1.05
U8G U10C U11G C12U C13U | 1.13
U8G U10C U11G C12U C13G | 1.15
U8G U10C U11G C12U C13A | 1.14
G9A C13U | 1.52

Variant | aptazyme ON/OFF ratio
G9A C13G | 1.07
G9A C13A | 1.45
U8G U10G | 1.32
U8G U10A | 1.15
U8G U10C | 3.87
U8G U10C U11G C12A | 1.35
U8G U10C U11G C12U | 1.33
U8G U10C U11G C12G | 1.23
U8G U10A U11G C12A C13G | 1.12
U8G U10A U11G C12A C13A | 1.11
U8G U10A U11G C12A C13U | 1.12
U8G U10A U11A C12G C13G | 1.21
U8G U10A U11A C12G C13A | 1.12
U8G U10A U11A C12G C13U | 1.07
U8G U10A U11C C13A | 1.03
U8G U10A U11C C13U | 1.03
U8G U10A U11C C13G | 1.02
U8G G9U U11A C12U C13A | 1.19
U8G G9U U11A C12U C13U | 1.35
U8G G9U U11A C12U C13G | 1.22
U8G G9U U11G C12U C13A | 1.13
U8G G9U U11G C12U C13G | 1.1
U8G G9U U11G C12U C13U | 1.16
